According to publication PMC10104862:

Molecular target: Flag-TRF2 (Telomeric repeat-binding factor 2), wild type (not stated (human or mouse cDNA cloned)) (UniProt Q15554)
Assay: co-IP; 293T or U2OS cells co-transfected with epitope-tagged cDNAs, lysed 48 h later in BCO 300 buffer (20 mM HEPES pH 7.5, 10% glycerol, 1 mM EDTA, 0.1% NP-40); Flag M2 affinity gel; SDS-PAGE and blot

UniProt Q15554, sequence (Q15554 whole entry): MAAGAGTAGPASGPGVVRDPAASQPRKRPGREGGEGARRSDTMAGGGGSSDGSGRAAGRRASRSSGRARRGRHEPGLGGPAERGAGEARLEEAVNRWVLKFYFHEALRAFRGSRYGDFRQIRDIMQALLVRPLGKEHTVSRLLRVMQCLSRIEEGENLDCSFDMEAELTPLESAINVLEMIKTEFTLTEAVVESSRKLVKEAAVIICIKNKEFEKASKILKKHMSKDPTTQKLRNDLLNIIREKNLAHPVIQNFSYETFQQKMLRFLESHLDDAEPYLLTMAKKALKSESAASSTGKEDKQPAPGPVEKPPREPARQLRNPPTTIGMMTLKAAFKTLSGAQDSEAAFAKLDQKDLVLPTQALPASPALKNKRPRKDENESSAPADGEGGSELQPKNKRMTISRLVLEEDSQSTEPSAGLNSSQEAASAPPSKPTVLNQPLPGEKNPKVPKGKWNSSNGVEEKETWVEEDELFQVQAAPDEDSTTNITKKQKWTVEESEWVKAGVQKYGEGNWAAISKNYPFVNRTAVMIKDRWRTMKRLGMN

Which fold binding relative to TRF2^ΔB does the source give for “ADAR1p110, wild type (expressed construct) (natural protein)” here?
The fold binding relative to TRF2^ΔB was 3 fold.
